Laboratory results: PMC11761711, “Insights into the flexibility of the domain‐linking loop in actinobacterial coproheme decarboxylase through structures and molecular dynamics simulations” (Protein Science : A Publication of the Protein Society, 2025)

Molecular target: the molecule itself
Test: cryo-EM structure; apo-CdChdC, SEC-purified, 70 to 120 uM on grids, single-particle reconstruction with C5 symmetry, 2.27 A

B1: Corynebacterium diphtheriae coproheme decarboxylase (enzyme)
chain: MAEKLNFEELNSMQRYSQFAVFRAIPGALGSDRAEIVAQAQSFFDGLETAGKVEVRGIYDLAGCRAEADFMIWWIAEEFEEIQAAFARFRRETVLGQVSEVAWLGNSLHRPAEFNRSHLPSFIMGEIPGDWITVYPFVRSYDWYIMDPQKRRKILAEHGQAARDFPDVRANTVPAFALGDYEWMLAFEAPRLDRIVDLMHKMRYTEARLHVREETPFFTGRRVSEVSELVNVLP
notes: coproheme decarboxylase (ChdC) of Corynebacterium diphtheriae, wild type; Homopentamer; also called CdChdC; apo-CdChdC; source: recombinant, expressed and purified as described previously (Michlits et al. 2020); Ni2+ column, HRV 3C protease cleavage, SEC
- stoichiometry N: 5
